Holding throughout (test): SPR
For assay [1], the target named is histone H3 peptide trimethylated at lysine 4. To be noted: parent: est. 490; read off a plot.
The target of a further assay is PI3P. To be noted: parent: est. 370; read off a plot.
The target of a further assay is PI5P. To be noted: parent: est. 460; read off a plot.
For a further assay, the target named is PI(4,5)P2. To be noted: parent: est. 240; read off a plot.

As for “GST-TAF3 PHD finger, wild type K922; K923; K925; K926; R927; K928”, the response in assay [1] stood at 570 RU.
Take “GST-TAF3 PHD finger, wild type D890; W891”: the response with PI3P worked out at 270 RU; with PI5P, 400 RU; in the assay with PI(4,5)P2, 120 RU.

Source of the values: article PMC4429956.
